The target in the experiment is mouse FXII^HC5 (mouse). As to the kind of experiment: native MS; buffer-exchanged into 1 M ammonium acetate pH 7.0, electrospray, Bruker maXis qTOF, native-favouring source conditions.

The values that follow come from article PMC12216678.

In turn, mouse FXII^HC5 (domain or fragment) gave a stoichiometry N of 2.
